Laboratory results as given in patent US20160122768.

T1: phospho-SRC Y527 peptide [H-TSTEPQ-pY-QPGENL-OH]
T1 chain: TSTEPQYQPGENL


Legend:
[1] = target: SRC (endogenous, from RA FLS lysates), P12931
[2] = target: T1, phospho-SRC Y527 peptide …

| Protein | basal phosphorylation of SRC Y527 in RA FLS after PTPRK knockdown (Western blotting) [1] | in vitro dephosphorylation of the SRC phospho-Y527 peptide (PTP assay, Biomol Green, absorbance at 620 nm) [2] |
| --- | --- | --- |
| RPTPκ (endogenous, in human RA FLS and RA synovial tissue) (protein) AQGQFSAGGCTFDDGPGACDYHQDLYDDFEWVHVSAQEPHYLPPEMPQGSYMIVDSSDHDPGEKARLQLPTMKENDTHCIDFSYLLYSQKGLNPGTLNILVRVNKGPLANPIWNVTGFTGRDWLRAELAVSTFWPNEYQVIFEAEVSGGRSGYIAIDDIQVLSYPCDKSPHFLRLGDVEVNAGQNATFQCIATGRDAVHNKLWLQRRNGEDIPVAQTKNINHRRFAASFRLQEVTKTDQDLYRCVTQSERGSGVSNFAQLIVREPPRPIAPPQLLGVGPTYLLIQLNANSIIGDGPIILKEVEYRMTSGSWTETHAVNAPTYKLWHLDPDTEYEIRVLLTRPGEGGTGLPGPPLITRTKCAEPMRTPKTLKIAEIQARRIAVDWESLGYNITRCHTFNVTICYHYFRGHNESKADCLDMDPKAPQHVVNHLPPYTNVSLKMILTNPEGRKESEETIIQTDEDVPGPVPVKSLQGTSFENKIFLNWKEPLDPNGIITQYEISYSSIRSFDPAVPVAGPPQTVSNLWNSTHHVFMHLHPGTTYQFFIRASTVKGFGPATAINVTTNISAPTLPDYEGVDASLNETATTITVLLRPAQAKGAPISAYQIVVEELHPHRTKREAGAMECYQVPVTYQNAMSGGAPYYFAAELPPGNLPEPAPFTVGDNRTYQGFWNPPLAPRKGYNIYFQAMSSVEKETKTQCVRIATKAATEEPEVIPDPAKQTDRVVKIAGISAGILVFILLLLVVILIVKKSKLAKKRKDAMGNTRQEMTHMVNAMDRSYADQSTLHAEDPLSITFMDQHNFSPRYENHSATAESSRLLDVPRYLCEGTESPYQTGQLHPAIRVADLLQHINLMKTSDSYGFKEEYESFFEGQSASWDVAKKDQNRAKNRYGNIIAYDHSRVILQPVEDDPSSDYINANYIDGYQRPSHYIATQGPVHETVYDFWRMIWQEQSACIVMVTNLVEVGRVKCYKYWPDDTEVYGDFKVTCVEMEPLAEYVVRTFTLERRGYNEIREVKQFHFTGWPDHGVPYHATGLLSFIRRVKLSNPPSAGPIVVHCSAGAGRTGCYIVIDIMLDMAEREGVVDIYNCVKALRSRRINMVQTEEQYIFIHDAILEACLCGETAIPVCEFKAAYFDMIRIDSQTNSSHLKDEFQTLNSVTPRLQAEDCSIACLPRNHDKNRFMDMLPPDRCLPFLITIDGESSNYINAALMDSYRQPAAFIVTQYPLPNTVKDFWRLVYDYGCTSIVMLNEVDLSQGCPQYWPEEGMLRYGPIQVECMSCSMDCDVINRIFRICNLTRPQEGYLMVQQFQYLGWASHREVPGSKRSFLKLILQVEKWQEECEEGEGRTIIHCLNGGGRSGMFCAIGIVVEMVKRQNVVDVFHAVKTLRNSKPNMVEAPEQYRFCYDVALEYLESS | RA FLS treated with PTPRK ASO showed increased basal phosphorylation of SRC Y527 | – |
| C-terminally HA-tagged wild type (WT) RPTPκ (NM 008983.2), full-length, immunoprecipitated from COS-1 cells (protein) ALGQFSAGGCTFDDGPGACDYHQDLYDDFEWVHVSAQEPHYLPPEMPQGSYMVVDSSNHDPGEKARLQLPTMKENDTHCIDFSYLLYSQKGLNPGTLNILVRVNKGPLANPIWNVTGFTGRDWLRAELAVSTFWPNEYQVIFEAEVSGGRSGYIAIDDIQVLSYPCDKSPHFLRLGDVEVNAGQNATFQCIATGRDAVHNKLWLQRRNGEDIPVAQTKNINHRRFAASFRLQEVTKTDQDLYRCVTQSERGSGVSNFAQLIVREPPRPIAPPQLLGVGPTYLLIQLNANSIIGDGPIILKEVEYRMTSGSWTETHAVNAPTYKLWHLDPDTEYEIRVLLTRPGEGGTGLPGPPLITRTKCAEPMRTPKTLKIAEIQARRIAVDWESLGYNITRCHTFNVTICYHYFRGHNESRADCLDMDPKAPQHVVNHLPPYTNVSLKMILTNPEGRKESEETIIQTDEDVPGPVPVKSLQGTSFENKIFLNWKEPLEPNGIITQYEVSYSSIRSFDPAVPVAGPPQTVSNLWNSTHHVFMHLHPGTTYQFFIRASTVKGFGPATAINVTTNISAPSLPDYEGVDASLNETATTITVLLRPAQAKGAPISAYQIVVEQLHPHRTKREAGAMECYQVPVTYQNALSGGAPYYFAAELPPGNLPEPAPFTVGDNRTYKGFWNPPLAPRKGYNIYFQAMSSVEKETKTQCVRIATKAAATEEPEVIPDPAKQTDRVVKIAGISAGILVFILLLLVVIVIVKKSKLAKKRKDAMGNTRQEMTHMVNAMDRSYADQSTLHAEDPLSLTFMDQHNFSPRLPNDPLVPTAVLDENHSATAESSRLLDVPRYLCEGTESPYQTGQLHPAIRVADLLQHINLMKTSDSYGFKEEYESFFEGQSASWDVAKKDQNRAKNRYGNIIAYDHSRVILQPVEDDPSSDYINANYIDIWLYRDGYQRPSHYIATQGPVHETVYDFWRMVWQEQSACIVMVTNLVEVGRVKCYKYWPDDTEVYGDFKVTCVEMEPLAEYVVRTFTLERRGYNEIREVKQFHFTGWPDHGVPYHATGLLSFIRRVKLSNPPSAGPIVVHCSAGAGRTGCYIVIDIMLDMAEREGVVDIYNCVKALRSRRINMVQTEEQYIFIHDAILEACLCGETAIPVCEFKAAYFDMIRIDSQTNSSHLKDEFQTLNSVTPRLQAEDCSIACLPRNHDKNRFMDMLPPDRCLPFLITIDGESSNYINAALMDSYRQPAAFIVTQYPLPNTVKDFWRLVYDYGCTSIVMLNEVDLSQGCPQYWPEEGMLRYGPIQVECMSCSMDCDVINRIFRICNLTRPQEGYLMVQQFQYLGWASHREVPGSKRSFLKLILQVEKWQEECEEGEGRTIIHCLNGGGRSGMFCAIGIVVEMVKRQNVVDVFHAVKTLRNSKPNMVEAPEQYRFCYDVALEYLESS | – | full-length RPTPk immunoprecipitated from COS-1 cells in vitro dephosphorylated a SRC phospho-Y527 peptide |
